Reference: patent US20060211075A1, “Enzyme sensors including environmentally sensitive or fluorescent labels and uses thereof” (The Albert Einstein College of Medicine of Yeshiva …, priority 2005, published 2006)
One block for each molecule: values may come before it. Non-standard residues stand in square brackets, D forms with d. Residues, ends and D or L forms follow the SMILES beside them. No end group written: not given here. *: point of attachment. Cascade Yellow = fluorophore from Cascade Yellow succinimidyl ester, attached to the Dab or Dap side chain; pY = N[C@@H](Cc1ccc(OP(=O)(O)O)cc1)C(=O)O; NBD = O=[N+]([O-])c1ccc(*)c2nonc12; Dab = NCC[C@H](N)C(=O)O; Dap = NC[C@H](N)C(=O)O

Key:
Src [1] = molecular target: T1, Src (Homo sapiens, UniProt P12931); assay: Src kinase-catalyzed phosphorylation of self-reporting fluorophore-peptides, fluorescence change (no detection module); settings: for Phosphorylation-induced fluorescence change: Src, no detection module; for Fluorescence change (fold): upon phosphorylation
Method: Tyrosine kinase-catalyzed phosphorylation was initiated by addition of 15 μL of 10 mM ATP to the following solution: 3 μL 0.1 mM peptide stock solution, 3.8 μL 200 mM MgCl2, 1.5 μL 100 mM MnCl2, 23.2 μL H2O, 6 μL 50 mM DTT, 15 μL 0.1 mg/mL BSA, and 7.5 μL 0.03 μM Src in 75 μL Tris buffer solution (pH 7.2).

GST-Lck-SH2 = molecular target: T2, GST-Lck-SH2 (Homo sapiens, UniProt P06239); assay: Fluorescence change as a function of Lck-SH2 concentration (Src-catalyzed phosphorylation); type: biochemical
T2 construct: made in house; host or cells: E. coli
T2 sequence (P06239 127-224 limits assumed): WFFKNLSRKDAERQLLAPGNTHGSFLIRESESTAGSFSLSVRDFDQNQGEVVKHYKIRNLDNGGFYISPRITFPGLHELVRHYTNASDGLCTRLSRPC
Excerpt: As is evident from Table 1, the dapoxyl fluorophore positioned off the +3 and +4 sites on the peptide substrate (Dap-5 and Dab-5) produce the largest changes in fluorescent behavior. Two peptides (13 and 14, FIG. 4) were examined in greater detail. Both peptides were resynthesized on the Rink resin and purified by HPLC. In addition, the phosphotyrosine version of 13 was enzymatically prepared. […] If the SH2 domain is responsible for the fluorescence change induced by Src kinase-catalyzed phosphorylation, then the Lck SH2 domain concentration should influence the observed fluorescence response. […] The reactions were initiated by the addition of ATP. When only buffer was added to “initiate” the reaction (i.e. no ATP), the fluorescence of the mixture remained unperturbed. Furthermore, in the absence of Lck SH2 domain, ATP addition to initiate the reaction furnished an exceedingly modest change in fluorescence intensity (<5%). By contrast, increasing concentrations of SH2 domain produced increasing enhancements in fluorescence intensity. Above an Lck SH2 concentration of 16 μM, the change in fluorescence intensity began to level off, which is in keeping with the notion that the interaction between phosphopeptide and Lck SH2 domain was approaching saturation. […] This appears to be a consequence of the —NH(CH2)2SH tail that is present on the library members (but not on the amide-capped peptides, as a consequence of the respective synthesis methods used).
(§1) The fluorescence change was monitored as a function of time. Control assays in the absence of Lck-SH2 were also performed.
The assay protocol described above was used to assess the effect of GST-Lck-SH2 concentration on the observed fluorescence associated with the phosphorylation of pure peptide 13 (30 nM Src) and peptide 14 (15 nM Src).

PTP1B = molecular target: T3, PTP1B (Homo sapiens, UniProt P18031); assay: Effect of PTP1B on the fluorescence change; type: biochemical; settings: peptide substrate 4 μM; GST-Lck-SH2 22 μM
T3 construct: purchased Invitrogen
T3 sequence (P18031 1-435): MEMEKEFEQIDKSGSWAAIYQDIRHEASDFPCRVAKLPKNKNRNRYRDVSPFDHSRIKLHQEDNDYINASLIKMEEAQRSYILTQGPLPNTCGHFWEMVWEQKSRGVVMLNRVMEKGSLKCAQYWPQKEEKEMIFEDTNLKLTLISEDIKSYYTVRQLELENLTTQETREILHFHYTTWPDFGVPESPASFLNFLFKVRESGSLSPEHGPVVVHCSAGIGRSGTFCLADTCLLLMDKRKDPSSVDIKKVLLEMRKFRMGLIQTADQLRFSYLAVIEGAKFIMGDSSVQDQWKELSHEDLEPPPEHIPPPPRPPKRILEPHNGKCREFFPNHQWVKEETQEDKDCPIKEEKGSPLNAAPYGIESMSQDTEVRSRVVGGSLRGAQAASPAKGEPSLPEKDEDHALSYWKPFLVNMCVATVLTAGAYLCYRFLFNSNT

Src [2] = molecular target: T1, Src; assay: Assay of library: Src kinase-catalyzed phosphorylation of fluorophore-labeled peptides in presence of Lck-SH2, fluorescence change; type: biochemical; parameters: purchased Invitrogen; settings: fluorophore attachment site +4; —NH2 derivative (in parentheses, amide-capped); Lck-SH2 present
Method: The library was prepared via parallel synthesis using a previously described disulfide-linked Tentagel resin (see “Synthesis of Peptide Library” below). Following solid phase synthesis of the primary sequence, the side chain amine of the Dap or Dab residue was selectively deprotected and subsequently modified with the appropriate activated forms of 5, 6, and 7. The remaining protecting groups on the peptide were then removed with trifluoroacetic acid (TFA), the peptide-resin extensively washed to eliminate the last traces of TFA, and the peptide cleaved from the resin with assay buffer (which contained dithiothreitol) and purified by HPLC. The fluorescent response of the individual library members to Src catalysis in the presence of Lck SH2 was subsequently examined in detail (see “Assay of Library” below).
as §1

Src [3] = molecular target: T1, Src; assay: Vmax and Km of Src kinase-catalyzed phosphorylation at fixed Lck-SH2 (20 μM); type: biochemical; parameters: purchased Invitrogen; settings: varying peptide
Method: as §1
The final Src concentration was 30 nM for peptide 13 and 15 nM for peptide 14.

Lck SH2 domain = molecular target: T4, Lck SH2 domain (Homo sapiens, UniProt P06239); assay: Effect of competing Lck-SH2 domain ligand on the fluorescence change; type: binding; settings: ligand 50 μM, peptide substrate 4 μM, GST-Lck-SH2 22 μM
T4 construct: made in house; host or cells: E. coli
T4 sequence (P06239 127-224 limits assumed): as the sequence (P06239 127-224 limits assumed) above
Excerpt: As is evident from Table 1, the dapoxyl fluorophore positioned off the +3 and +4 sites on the peptide substrate (Dap-5 and Dab-5) produce the largest changes in fluorescent behavior. Two peptides (13 and 14, FIG. 4) were examined in greater detail. Both peptides were resynthesized on the Rink resin and purified by HPLC. In addition, the phosphotyrosine version of 13 was enzymatically prepared. […] If the SH2 domain is responsible for the fluorescence change induced by Src kinase-catalyzed phosphorylation, then the Lck SH2 domain concentration should influence the observed fluorescence response. […] The reactions were initiated by the addition of ATP. When only buffer was added to “initiate” the reaction (i.e. no ATP), the fluorescence of the mixture remained unperturbed. Furthermore, in the absence of Lck SH2 domain, ATP addition to initiate the reaction furnished an exceedingly modest change in fluorescence intensity (<5%). By contrast, increasing concentrations of SH2 domain produced increasing enhancements in fluorescence intensity. Above an Lck SH2 concentration of 16 μM, the change in fluorescence intensity began to level off, which is in keeping with the notion that the interaction between phosphopeptide and Lck SH2 domain was approaching saturation. […]

[4] = fluorophore on Dap at position Y+3, λex/λem (nm) (first pair listed for the fluorophore)
[5] = fluorophore on Dab at position Y−2, λex/λem (nm) (first pair listed for the fluorophore)

Molecule: 27: corresponding peptide containing Cascade Yellow positioned at Y+3, SEQ ID NO:16 (EEEIYGE[Dap](Cascade Yellow)EA) [Peptide 27]
Phosphorylation-induced fluorescence change (Src [1]): smaller fluorescence response

Molecule: Ac-Glu-Glu-Glu-Ile-Tyr-Gly-Glu-Ile-Dab(dapoxyl)-Ala (Ac-EEEIYGEI[Dab](dapoxyl)A-NH2; not fully specified; printed as Ac-Glu-Glu-Glu-Ile-Tyr-Gly-Glu-Ile-Dab(dapoxyl)-Ala) [Peptide 14]
Fluorescence Increase (GST-Lck-SH2; peptide 8 μM, Lck-SH2 0.2 μM, 15 nM Src): 1.07 fold change
Fluorescence Increase (GST-Lck-SH2; peptide 8 μM, Lck-SH2 2 μM, 15 nM Src): 1.70 fold change
Fluorescence Increase (GST-Lck-SH2; peptide 8 μM, Lck-SH2 4 μM, 15 nM Src): 2.32 fold change
Fluorescence Increase (GST-Lck-SH2; peptide 8 μM, Lck-SH2 8 μM, 15 nM Src): 4.31 fold change
Fluorescence Increase (GST-Lck-SH2; peptide 8 μM, Lck-SH2 12 μM, 15 nM Src): 5.34 fold change
Fluorescence Increase (GST-Lck-SH2; peptide 8 μM, Lck-SH2 16 μM, 15 nM Src): 6.20 fold change
Fluorescence Increase (GST-Lck-SH2; peptide 8 μM, Lck-SH2 20 μM, 15 nM Src): 6.85 fold change
Fluorescence Increase (GST-Lck-SH2; peptide 8 μM, Lck-SH2 26 μM, 15 nM Src): 7.32 fold change
Fluorescence Increase (GST-Lck-SH2; peptide 8 μM, Lck-SH2 32 μM, 15 nM Src): 7.20 fold change
Fold change in fluorescence intensity in the Src kinase-catalyzed phosphorylation (Src [2]): 7.2 fold
Km (Src [3]): 4.8 ± 0.8 µM
Vmax (Src [3]): 1.5 ± 0.1 µmol/min/mg

Molecule: Ac-pTyr-Glu-Glu-Ile-Glu-amide (Ac-[pY]EEIE-NH2; SMILES CC[C@H](C)[C@H](NC(=O)[C@H](CCC(=O)O)NC(=O)[C@H](CCC(=O)O)NC(=O)[C@H](Cc1ccc(OP(=O)(O)O)cc1)NC(C)=O)C(=O)N[C@@H](CCC(=O)O)C(N)=O)
fluorescence change of the Src reaction in presence of known Lck SH2 domain ligand (Lck SH2 domain): no fluorescence change was observed
fluorescence change of the Src reaction in presence of known Lck SH2 domain ligand (Lck SH2 domain; listed as Ac-pTyr-Glu-Glu-Ile-Glu-OH): no fluorescence change

Molecule: NBD (Ac-EEEIY[Dap](NBD)EIEA-NH2; SMILES CC[C@H](C)[C@H](NC(=O)[C@H](CCC(=O)O)NC(=O)[C@H](CNc1ccc([N+](=O)[O-])c2nonc12)NC(=O)[C@H](Cc1ccc(O)cc1)NC(=O)[C@@H](NC(=O)[C@H](CCC(=O)O)NC(=O)[C@H](CCC(=O)O)NC(=O)[C@H](CCC(=O)O)NC(C)=O)[C@@H](C)CC)C(=O)N[C@@H](CCC(=O)O)C(=O)N[C@@H](C)C(N)=O)
Fluorescence change (fold) (Src [1]; [5]): 1.7 fold
Fluorescence change (fold) (Src [1]; [4]): 1.25 fold

The next lines start with results.

change in fluorescence intensity on ATP addition (GST-Lck-SH2; absence of Lck SH2 domain, peptide 16 μM): < 5%
Fluorescence Increase (GST-Lck-SH2; peptide 16 μM, Lck-SH2 0 μM, 30 nM Src): 1.07 fold change
Fluorescence Increase (GST-Lck-SH2; peptide 16 μM, Lck-SH2 4 μM, 30 nM Src): 1.24 fold change
Fluorescence Increase (GST-Lck-SH2; peptide 16 μM, Lck-SH2 8 μM, 30 nM Src): 1.33 fold change
Fluorescence Increase (GST-Lck-SH2; peptide 16 μM, Lck-SH2 12 μM, 30 nM Src): 1.41 fold change
Fluorescence Increase (GST-Lck-SH2; peptide 16 μM, Lck-SH2 16 μM, 30 nM Src): 1.52 fold change
Fluorescence Increase (GST-Lck-SH2; peptide 16 μM, Lck-SH2 20 μM, 30 nM Src): 1.56 fold change
Fluorescence Increase (GST-Lck-SH2; peptide 16 μM, Lck-SH2 26 μM, 30 nM Src): 1.61 fold change
Fluorescence Increase (GST-Lck-SH2; peptide 16 μM, Lck-SH2 32 μM, 30 nM Src): 1.59 fold change
fluorescence change when PTP1B is added at the same time as ATP (PTP1B): blocked the fluorescence change
Molecule: CC[C@H](C)[C@H](NC(=O)[C@H](CCC(=O)O)NC(=O)[C@H](CNc1ccc([N+](=O)[O-])c2nonc12)NC(=O)[C@H](Cc1ccc(O)cc1)NC(=O)[C@@H](NC(=O)[C@H](CCC(=O)O)NC(=O)[C@H](CCC(=O)O)NC(=O)[C@H](CCC(=O)O)NC(C)=O)[C@@H](C)CC)C(=O)N[C@@H](CCC(=O)O)C(=O)N[C@@H](C)C(N)=O [Peptide 13, Ac-Glu-Glu-Glu-Ile-Tyr-Dap(NBD)-Glu-Ile-Glu-Ala] (Ac-EEEIY[Dap](NBD)EIEA-NH2)
fluorescence intensity when PTP1B is added after completion of the Src kinase-catalyzed reaction (PTP1B): reduced the fluorescence intensity to the starting value

Fluorescence change (fold) (Src [1]; [4]): 1.06 fold
Molecule: BODIPY FL

Fluorescence change (fold) (Src [1]; [5]): 2.1 fold
Fluorescence change (fold) (Src [1]; fluorophore on Dap at position Y+3, λex 379 nm, λem 422 nm): 1.7 fold
Fluorescence change (fold) (Src [1]; [4]): 1.7 fold
Molecule: Cascade Blue ™

Fluorescence change (fold) (Src [1]; [5]): 2.7 fold
Fluorescence change (fold) (Src [1]; [4]): 1.45 fold
Molecule: Cascade Yellow (EE[Dab](Cascade Yellow)IYGEIEA)

Fluorescence change (fold) (Src [1]; [5]): 1.0 fold
Fluorescence change (fold) (Src [1]; [4]): 1.0 fold
Molecule: Dansyl

Phosphorylation-induced fluorescence change (Src [1]): 2.7 fold
Molecule: Sensor 26: Cascade Yellow-containing sensor, fluorophore on Dab at Y−2, SEQ ID NO:15 (EE[Dab](Cascade Yellow)IYGEIEA)
